Measured values as given in patent publication US20160200831A1 (Sanofi, published 2016).
Where a chain is given by its changes, count along the chain named. Blank lines part the entries; values can stand above or below the binder they belong to.

Assays:
human PAI-1 [1] = target: T1, human PAI-1 (human, UniProt P05121 24-402); assay: cell-based or functional assay
[2] = target: T2, cyno PAI-1 captured on immobilized human vitronectin (cynomolgus monkey; human, UniProt P04004 20-478, limits assumed); assay: Biacore, cPAI-1 on vitronectin chip, two state reaction model
T2 construct: non-covalent complex formed on the chip; also called cPAI-1/Vn

[3] = target: T3, human PAI-1 captured on immobilized human vitronectin (human, UniProt P04004 20-478); assay: Biacore, hPAI-1 on vitronectin chip, two state reaction model
T3 construct: non-covalent complex formed on the chip or plate; also called PAI-1/Vn complex; Vn captured hPAI-1

[4] = target: T2, cyno PAI-1 captured on immobilized …; assay: Biacore, cPAI-1 on vitronectin chip, two state reaction model (ka1)
[5] = target: T2, cyno PAI-1 captured on immobilized …; assay: Biacore, cPAI-1 on vitronectin chip, two state reaction model (kd1)
[6] = target: T3, human PAI-1 captured on immobilized …; assay: Biacore, hPAI-1 on vitronectin chip, two state reaction model (kd1)
[7] = target: T3, human PAI-1 captured on immobilized …; assay: Biacore, hPAI-1 on vitronectin chip, two state reaction model (ka1); two state reaction model, ka1 is the first-step rate
[8] = target: T4, glycosylated human PAI-1 (active form) (human, UniProt P05121 24-402, glycosylated); assay: cell-based or functional assay
[9] = target: T4, glycosylated human PAI-1 (active form); assay: cell-based or functional assay; remark: listed apart in the source
human PAI-1 [10] = target: T1, human PAI-1; assay: cell-based or functional assay; remark: listed apart in the source
cynomolgus PAI-1 [11] = target: T5, cynomolgus PAI-1 (cynomolgus monkey (Macaca fascicularis), UniProt P05121 24-402 (human entry)); assay: cell-based or functional assay
human PAI-1 [12] = target: T1, human PAI-1; assay: cell-based or functional assay; remark: listed apart in the source
[13] = target: T4, glycosylated human PAI-1 (active form); assay: cell-based or functional assay; remark: listed apart in the source
[14] = target: T3, human PAI-1 captured on immobilized …; assay: Biacore, hPAI-1 on vitronectin chip, 1:1 model
human PAI-1 [15] = target: T1, human PAI-1; assay: Biacore, mAb on anti-human IgG Fc chip, 1:1 model
cynomolgus PAI-1 [16] = target: T5, cynomolgus PAI-1; assay: Biacore, mAb on anti-human IgG Fc chip / cyno PAI-1, 1:1 model
[17] = target: T3, human PAI-1 captured on immobilized …; assay: Biacore, hPAI-1 on vitronectin chip, two state reaction model (ka1)

T1 sequence (P05121 24-402 limits assumed): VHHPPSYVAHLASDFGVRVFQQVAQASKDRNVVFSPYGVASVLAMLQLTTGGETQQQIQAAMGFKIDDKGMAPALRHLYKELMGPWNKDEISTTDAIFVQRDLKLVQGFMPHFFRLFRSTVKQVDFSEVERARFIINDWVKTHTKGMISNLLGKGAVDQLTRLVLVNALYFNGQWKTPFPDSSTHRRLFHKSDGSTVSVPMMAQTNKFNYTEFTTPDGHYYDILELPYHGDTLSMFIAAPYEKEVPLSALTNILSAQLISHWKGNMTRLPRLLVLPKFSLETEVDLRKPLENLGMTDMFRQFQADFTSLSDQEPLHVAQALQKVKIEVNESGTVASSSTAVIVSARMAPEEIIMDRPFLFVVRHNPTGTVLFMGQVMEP
T3 sequence (chain, as listed by the source limits assumed, chain 1 of 2): as the sequence (P05121 24-402 limits assumed) above
T3 sequence (P04004 20-478 limits assumed, chain 2 of 2): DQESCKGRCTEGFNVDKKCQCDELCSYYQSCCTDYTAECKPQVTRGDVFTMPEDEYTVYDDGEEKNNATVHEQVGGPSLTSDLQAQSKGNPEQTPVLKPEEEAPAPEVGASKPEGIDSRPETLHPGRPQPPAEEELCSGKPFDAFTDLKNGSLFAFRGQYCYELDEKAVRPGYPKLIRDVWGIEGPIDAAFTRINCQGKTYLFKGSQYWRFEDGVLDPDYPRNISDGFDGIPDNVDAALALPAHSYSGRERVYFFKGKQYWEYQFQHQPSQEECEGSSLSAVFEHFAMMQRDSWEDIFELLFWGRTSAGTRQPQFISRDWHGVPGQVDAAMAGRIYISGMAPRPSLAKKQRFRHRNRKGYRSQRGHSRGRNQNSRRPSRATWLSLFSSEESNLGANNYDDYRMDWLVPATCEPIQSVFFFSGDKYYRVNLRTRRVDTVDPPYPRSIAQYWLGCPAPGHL
T4 sequence (P05121 24-402 limits assumed): as the sequence (P05121 24-402 limits assumed) above
T2 sequence (chain, as listed by the source limits assumed, chain 1 of 2): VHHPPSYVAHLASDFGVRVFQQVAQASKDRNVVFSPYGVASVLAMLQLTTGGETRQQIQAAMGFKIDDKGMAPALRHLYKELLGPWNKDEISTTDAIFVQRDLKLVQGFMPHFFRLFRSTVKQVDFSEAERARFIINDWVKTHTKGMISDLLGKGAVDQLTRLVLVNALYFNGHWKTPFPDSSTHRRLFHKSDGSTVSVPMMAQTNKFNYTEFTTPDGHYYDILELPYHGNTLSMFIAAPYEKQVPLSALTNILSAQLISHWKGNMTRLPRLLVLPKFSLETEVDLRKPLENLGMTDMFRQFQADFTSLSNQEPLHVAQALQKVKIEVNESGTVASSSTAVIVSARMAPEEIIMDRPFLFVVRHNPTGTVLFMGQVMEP
T2 sequence (P04004 20-478 limits assumed, chain 2 of 2): as the sequence (P04004 20-478 limits assumed, chain 2 of 2) above

B1: A44-hv2 (antibody, V domains shown)
VH: EMQLQESGPGLVKPSETLSLTCSVTGDSMTNGYWNWIRKFPGKGLEYMGYITYSGSTYYNPSLKGRISITRNTSKNQYYLKLSSVTTADTATYYCARWHYGSPYYFDYWGQGTTLTVSS
VL: DIKMTQSPSSVSVSPGQTVTITCKASQDINSYLSWLQQKPGQSPKTLIYRANRSVDGVPSRFSGSGSGQDYSLTISSLQAMDEGIYYCLQYDEFPPTFGGGTKLTIK
notes: humanized A44, HEK293; constant regions as for A44-hv1; also called LC1b x HC1b; variant 2
Chromogenic Assay IC50 (human PAI-1 [1]): 0.6 nM
Kd [2]: 0.137 nM
Kd [3]: 0.135 nM
kon [4]: 2.3e+06 M⁻¹ s⁻¹
koff [5]: 0.000314 s⁻¹
koff [6]: 0.000403 s⁻¹
kon [7]: 2.99e+06 M⁻¹ s⁻¹

human plasma clot lysis restoration, IC50 [8]: 2 nM
Plasminogen Activation IC50 [9]: 2.01 nM
Plasminogen Activation Y50% [9]: 85.8%
active PAI-1 by uPA-PAI-1 complex ELISA, hPAI-1 Standard, IC50 (human PAI-1 [10]): 0.131 nM
active PAI-1 by uPA-PAI-1 complex ELISA, hPAI-1 Standard, Y50% (human PAI-1 [10]): 50.8%
active PAI-1 by uPA-PAI-1 complex ELISA, hPlasma TH1782, IC50 (human PAI-1 [10]): 0.0157 nM
active PAI-1 by uPA-PAI-1 complex ELISA, hPlasma TH1782, Y50% (human PAI-1 [10]): 37.5%
active PAI-1 by uPA-PAI-1 complex ELISA, Cyno PAI-1, IC50 (cynomolgus PAI-1 [11]): 0.0424 nM
active PAI-1 by uPA-PAI-1 complex ELISA, Cyno PAI-1, Y50% (cynomolgus PAI-1 [11]): 50.8%
PAI-1 activity in human liver lysate (UK-PAI complex ELISA), IC50, A44-hv11 (1 nM) (human PAI-1 [12]): 0.0365 nM
PAI-1 activity in human liver lysate (UK-PAI complex ELISA), IC50, A44-hv11 (2 nM) (human PAI-1 [12]): 0.0503 nM
PAI-1 activity in human liver lysate (UK-PAI complex ELISA), IC50, A44-hv11 (3 nM) (human PAI-1 [12]): 0.0465 nM
human plasma clot lysis, IC50 [13]: 1.38 nM
human plasma clot lysis, Imax @ 100 nM [13]: 113%
Kd [14]: 0.0156 nM
koff [14]: 0.000122 s⁻¹
kon [14]: 7.66e+06 M⁻¹ s⁻¹
Kd (human PAI-1 [15]): 0.0425 nM
koff (human PAI-1 [15]): 6.68e-05 s⁻¹
kon (human PAI-1 [15]): 1.57e+06 M⁻¹ s⁻¹
Kd [2]: 0.387 nM
Kd (cynomolgus PAI-1 [16]): 0.03 nM
koff (cynomolgus PAI-1 [16]): 5.6e-05 s⁻¹
kon (cynomolgus PAI-1 [16]): 1.87e+06 M⁻¹ s⁻¹
kon [4]: 1.56e+06 M⁻¹ s⁻¹
koff [5]: 0.0006 s⁻¹
B2: A44-hv11 (antibody, V domains shown)
VH: QMTLKESGPTLVKPTQTLSLTCSVSGDSMTNGYWNWIRQFPGKALEYMGYITYSGSTYYNPSLKGRITITRDTSKNQYYLTLSSVTTVDTATYYCARWHYGSPYYFDYWGQGTTLTVSS
VL: DIKMTQSPSSLSASVGDRVTITCKASQDINSYLSWLQQKPGKSPKTLIYRAQRSVEGVPSRFSGSGSGQDYSLTISSLQPEDLGIYYCLQYDEFPPTFGGGTKLEIK
notes: humanized A44, HEK293; compared with a human IgG1 isotype control; constant regions as for A44-hv1; also called A44V11; A44v11

B3: A44-hv7 (antibody, V domains shown)
VH: B2 VH with D27E, N31Q, D72Q, D89E
VL: B2 VL with G84A, I85T
notes: humanized A44, HEK293; constant regions as for A44-hv1; also called LC4 x HC4; variant 7
Chromogenic Assay IC50 (human PAI-1 [1]): 0.59 nM
Kd [2]: 0.0956 nM
Kd [3]: 0.0964 nM
kon [4]: 2.5e+06 M⁻¹ s⁻¹
koff [5]: 0.000239 s⁻¹
kon [17]: 4.14e+06 M⁻¹ s⁻¹
koff [6]: 0.000394 s⁻¹

Plasminogen Activation IC50 [9]: 1.82 nM
Plasminogen Activation Y50% [9]: 71.1%
active PAI-1 by uPA-PAI-1 complex ELISA, hPAI-1 Standard, IC50 (human PAI-1 [10]): 0.166 nM
active PAI-1 by uPA-PAI-1 complex ELISA, hPAI-1 Standard, Y50% (human PAI-1 [10]): 52.8%
active PAI-1 by uPA-PAI-1 complex ELISA, hPlasma TH1782, IC50 (human PAI-1 [10]): 0.0311 nM
active PAI-1 by uPA-PAI-1 complex ELISA, hPlasma TH1782, Y50% (human PAI-1 [10]): 61.4%
active PAI-1 by uPA-PAI-1 complex ELISA, Cyno PAI-1, IC50 (cynomolgus PAI-1 [11]): 0.0281 nM
active PAI-1 by uPA-PAI-1 complex ELISA, Cyno PAI-1, Y50% (cynomolgus PAI-1 [11]): 52.8%
Kd (human PAI-1 [15]): 0.0164 nM
koff (human PAI-1 [15]): 2.52e-05 s⁻¹
kon (human PAI-1 [15]): 1.54e+06 M⁻¹ s⁻¹
Kd [2]: 0.115 nM
Kd [3]: 0.179 nM
Kd (cynomolgus PAI-1 [16]): 0.027 nM
koff (cynomolgus PAI-1 [16]): 5.08e-05 s⁻¹
kon (cynomolgus PAI-1 [16]): 1.89e+06 M⁻¹ s⁻¹
kon [4]: 2.12e+06 M⁻¹ s⁻¹
koff [5]: 0.000243 s⁻¹
kon [17]: 2.4e+06 M⁻¹ s⁻¹
koff [6]: 0.000436 s⁻¹
B4: A44-hv13 (antibody, V domains shown)
VH: QMQLQESGPGLVKPSETLSLTCTVSGDSMTNGYWNWIRQPPGKGLEYMGYITYSGSTYYNPSLKSRITISRDTSKNQYSLKLSSVTAADTAVYYCARWHYGSPYYFDYWGQGTLVTVSS
VL: B2 VL
notes: humanized A44, HEK293; constant regions as for A44-hv1; also called LC2 x HC5b; variant 13
